This assay addresses T1, B7-H3 on LAN-1 cells (human) (UniProt Q5ZPR3).
T1 sequence (looked up): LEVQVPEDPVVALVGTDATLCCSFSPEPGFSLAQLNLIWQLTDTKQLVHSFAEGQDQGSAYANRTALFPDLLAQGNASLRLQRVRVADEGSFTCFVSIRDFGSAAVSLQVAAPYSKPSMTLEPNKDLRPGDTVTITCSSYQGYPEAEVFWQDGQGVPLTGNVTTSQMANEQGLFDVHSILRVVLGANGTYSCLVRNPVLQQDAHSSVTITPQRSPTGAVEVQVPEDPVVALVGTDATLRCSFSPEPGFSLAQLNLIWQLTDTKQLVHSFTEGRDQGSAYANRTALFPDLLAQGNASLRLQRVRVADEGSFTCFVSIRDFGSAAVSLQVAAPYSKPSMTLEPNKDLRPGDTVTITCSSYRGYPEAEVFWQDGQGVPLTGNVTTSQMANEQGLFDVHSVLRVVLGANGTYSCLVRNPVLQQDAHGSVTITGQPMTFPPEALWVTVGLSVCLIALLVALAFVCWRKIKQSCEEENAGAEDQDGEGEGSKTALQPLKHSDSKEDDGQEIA
The experiment in a line: flow cytometry wash-off on LAN-1 cells, FITC-labeled goat anti-mouse second antibody.

Our source for the retention on cells after 10 washes (MFI as percent of the baseline after first wash) values is patent US20170253660A1.

B1: 8H9 (antibody, INN chains, looked up, mouse IgG1, V domains shown)
VH: QVQLQQSGAELVKPGASVKLSCKASGYTFTNYDINWVRQRPEQGLEWIGWIFPGDGSTQYNEKFKGKATLTTDTSSSTAYMQLSRLTSEDSAVYFCARQTTATWFAYWGQGTLVTVSA
VL: DIVMTQSPATLSVTPGDRVSLSCRASQSISDYLHWYQQKSHESPRLLIKYASQSISGIPSRFSGSGSGSDFTLSINSVEPEDVGVYYCQNGHSFPLTFGAGTKLELK
On to B1, for which the retention on cells after 10 washes (MFI as percent of the baseline after first wash) is 80%.
